Test: label from the status in PepcDB records

| Sequence | protein production |
| --- | --- |
| MMRPKVYFKTFGCRTNLFDTQIMIKNLQNFELTEIEESADIVVVNSCTVTNGADSGVRSYLHRLKSEGKRVYLTGCGVLTRGEEIFTQELAFGVFGHSYKEQIDSLLSQKTRFSFKGDLEHIDSTVITEFIGKSRAFVKVQEGCDFSCSYCIIPSVRGKARSLPVDRIVSQVEILAQHGFGEFVLTGTNVGSYGKESGLNVAKLLKALSQIKGVKRLRLGSLEPSQIDAEFMELLEEPFMARHLHIALQHTSPKMLQIMNRRNEAQGDLALFERLAQKGYALGTDFILGHPGESEEVWKEAWERFVAFPLTHLHAFVYSPREGTPSSLMKDRISGNIAKERMRILQERVRENNHHFRQKGEKLWVLIESEREGGLYQGLDQFFNRIEIRSSDSLAGRWLEVSDYEAESEINRAELL | failed |
| MQEIQRFNKVLKSCVLFGDIILLNSLLWGFELVLGSRFYSGNLTSLYQGMVLLSLCYLVCNIQSGVILHHPVVRPEQIMIRVLRNMVPFILFSICFLSLFHFEFFRSRLFGLFYVALLIILICYRLAFRYFLELYREKGGNVRMVVLVGSHENMQELYHSMTDDPTSGYRVMGYFEDSPSDYYPEEVAYLGQPKEAIEYLERNSGKIAQLYCSLPSVRSAEIVPIINYCENHLVRFFSVPNVRNYLKRRMYFDLLGNVPVLSIRREPLELRENRVLKRFFDIIFSLIFLCTIFPFVYIIIGIAIKISSPGPIFFKQKRSGEDGREFWCYKFRSMRVNAQCDVLQATANDPRKTRIGEFIRKTSIDELPQFINVLMGDMSVVGPRPHMLKHTEEYAQVINKFMVRHFVKPGITGWAQVTGYRGETKELWQMEGRVSRDIWYIEHWTFMLDLYIIYKTVYNAIHGEKEAY | failed |
| MDCSESCHLKEPSKDRAFTHKPVVDEFKKSVHGAGHAPGATKDFHGGNRLEEETGQQNPSCRRCHSNTPYIKDANLERFKQELHHTETECGTCHQGETWRNQFSGHILRRLVGKNYDKMEANAMCVDCHGDHEAMAKVEIQDPETRERKKASFRFAHATDSYAKTLHGRLLAVNDESGASCIDCHAPDGFRHGILRDESKDSPTHPDRLGETCSQAGCHGYAKSPLNLGFLNTDLHDLDFLRMEDLSFALDFSRLDSAWYAAAWVLGPLGLIFLTSSLLSPLSRSRRAPVTEVVGYDHFQRVMIGGGSAKDGLWRRIRGRLVGGTPAVPVPAPLVEPGAPITSLTILFGSQTGNGEGVAADLEARLKAWGYSVELADMADYDPREIVNERLLFVIVSTHGEGQPPLPAEKLHGYLYAETAPRLEHLKFAVFALGDSSYKHFCKAGKDFDAFLQRLGASRVLDRVDADADFEEAAAAWIDAVLGCCRAIIGDTGIERPLEAEPVDHAVAKSGYGKTHPYPAAVLRNVNLNGEGSAKETRHIEIDLGDSGLSYEPGDALGVYPKNDPAYVEALLAALQADGYSEVTLGKETLSLREAFYKHLDITGLSRVLVEKYAELCDSRVLAGLLADPDPARLEGYLWGRQIIDLVEDFPIQGISPQTFVNVLRRLPPRLYSIASSMKAHPGQVHLTVGAVRYHAHGRNREGVCSTYLAGRIGPGERLAIFVQPNKHFRLPEDPETPLIMVGPGTGIAPFRGFVEEREVTGARGRNWLYFGDQRRATDYLYREEWEDKLRRGVLTRLDLAFSRDQERKVYVQTRMLENAREMYAWLEEGACFYVCGDASRMAQDVHRALLAIVMQEGGRTQEQAEEYLEAMAASRRYLRDVY | failed |
| MRDLVSCFSENSINVTHPLSISSSSSSCSKYSTNNVCISPSLIPSIQTSITSIYRITLSKHLIIKVTWCNPHNNNGLSISVASADQNPSTTLKLNTSSRFFRKKKGNKSVDSDLGKIEVFWDLSSAKYDSNLCGPEPINGFYVIVLVDGQMGLLLGDSSEETLRKKGFSGDIGFDFSLVSRQEHFTGNNTFYSTKVRFVETGDSHEIVIRCNKETEGLKQSNHYPVLSVCIDKKTVIKVKRLQWNFRGNQTIFLDGLLVDLMWDVHDWFFSNQGACGRAVFMFRTRNGLDSSRLWLEEKIVKKDQQDKLDFSLFIYACKT | failed |
| MSFVSALCRLAVALWVGGATLFTFVLTPTIFRSESRDAAGRIVGYLFPGYFRWGLACGAVALVALLVVRGKNWIPAAALMVVMLAVTAFQALHIEPKAAELKRQIPSFETTTKDHPLRREFSKLHGISAACNLSVIAGGVVLVILL | failed |
| MPNHQPVKKFKIIGGACKGLGLNLPNISSTRPTKAIVRESFFNTLQAEINGAHFIEVFSGSASMGLEALSRGAKSAVFFEQNKSAYKTLLENISLFKNRLKKEMEIQTFLDDAFKLLPTLCLKNGVLNIIYLDPPFETSGFLGIYEKCFQALERLLKRFNPKNLLVVFEHESMHEMPKSLVTLAIIKQKKFGKTTLTYFQ | failed |
| MELFTEAWAQAYCRKLNESEAYRKAASTWEGSLALAVRPDPKAGFPKGVAVVLDLWHGACRGAKAVEGEAEADFVIEADLATWQEVLEGRLEPLSALMRGLLELKKGTIAALAPYAQAAQELVKVAREVA | not failed |
| MTISEVSKKYELSADTLRYYERIGLIPPVNRNKSGIRSFTEEDCEWVNFIKCMRGAGLSIETLIEYVAMFQQGSSTIKARKELLIEQRNQLAKRIEEMQKTLERLNFKIDRYEEGIIEKEKVLKSSRNKKMEAVSYE | not failed |
| MERDTVLTATPTIDADLADATSCATPSRTAVSPLLPVLAALAAVVLWGGAFPAMKVAVQTLGTWQMMWARMVFALLLLVPLARRLAPARIERRDLPLLAGMALMQPCLYFLCESTALQLTTSSQAGVMAASMPLMMAVGGFLLGEKVSPRLWFGVGVSCIGVAWLTSSGGEGGGSAPDPFTGNLLELAAMACATGSSLCIGALISRGKGRWNALTLTGIQTLAGAVFFLPGAPGVIGGVADWSTEVLLAVVYLGGASSLGAFGLYNWALGHMPASRAGNFINLVPVAAIFFGWLLLGETLTTTQYLATGLVMGGVLMGTRAR | failed |
| MNITGIIAEYNPMHNGHIHHLEKTKEICKSDVILCVMSGDFVQRGEPAIIDKWSRAYAALSSGVDLVIELP | failed |
| MRRLALLFPVLALLVGVWAFPLLGPLFRHGAVPNPFALKEPFTLLVYGSSPEYVEYHKRAPERFRGLADTILLVRLDPGANRVVVLSVPRDVWVLLPGHGWHKVNAASPLGGPELMKEAVARITGVRPDRYVVVSLEALRRGVDALGGVRVCVEKPMRYQDQAAGLVIDLEPGCQVLSGAQAEGYLRFRKDALGDIGRIQRQQAFFHALKDQLFSLPGLLRLPRAVAAVEPYVATDLTRGEKGALLGFLLRRPAFVSLLLPGRFAGGWAVDEAAWARLRAVYFEDREAWGEALAGKRAVVLFGPGQGALAQEAAERLKALGLSVSLRELALAPERTEVLENGPGRLAQALGEALGVPYRVSGEAALGADLTLRLGREGLPR | failed |
| GAFDAAQLDVAQAYARHLAVSLQQSLLRQRVARLGRVYEVLSRINALVARCHEREELFDGICRVTVEVGTYRMAWVGVIDPETLNGTVVAFRGEDSDYLRQIRLSAKEDSPYRDRPACKAVRQKEIVVCNDVQEDASLKGLAPHLISYGVRSVACLPVMLDGRAFAVLALFAGDVGAFDRQEMGLLRELASDIGFALDHIQKEERLDYLAYYDS | failed |
| MEVSERIIIGNKISKITIIANIALSILKILAGVFGKSSALIADGMHSFSDILSTVVVMLGLKLSEKPADESHPYGHERIEPALTKILAVILLVTALMIFYCGLTTIIGGNYQIPGNITIIAALISIFTKEWMYKYTKKGAEQIESSALLADAWHHRSDAFSSVGTLIGVVGAKLGYPILDPIASIVISLFIAKMAFEIYFKALNQLLDRAADSKTIEEIKKIILSVDGVLEIDVLKTRIHSNKIYVDVEISVDKDLSLIEAHNISENVHSQIESKLKRVKHCMVHVNPYLK | failed |
| MKKRVQNKRFARTICDGNNPSQIATDLRDICEGEKTRRFSVANFARDNSLAILREICEELARTKKFLAKSLQIARDLQVQILFCGNFCDETYKDRDFAGWLKLYVTNGCENELLLLWLYEIVQEPRSKITTAKSFVVDVNANKTYAKFKPFILASQAFYLTRV | not failed |
| MDPEKGTIRLDFMHSLGTWMVPELIRTFRAEHPNVEFQLHQAAAMLLVDRVLADETDLALVGPKPAEVGTSLGWAPLLRQRLALAVPADHRLASFSGQGELPLITAAEEPFVAMRAGFGTRLLMDALAEEAGFVPNVVFESME | failed |
